This is an account of results in the supplement of paper PMC5998384.

The test system of data set [1] is HeLa Kyoto. The data set is described as follows: solubility in G1/S (NP-40 vs SDS abundance) (log2 ratio); higher = more soluble. The conditions noted are these: cell cycle stage: G1/S.
Data set [2] deals with HeLa Kyoto. The data set is described as follows: solubility change mitosis vs G1/S (difference of NP-40 vs SDS log2 ratios) (log2 ratio difference); higher = more soluble in mitosis.
Data set [3] deals with HeLa Kyoto. Kind of data set: thermal stability score vs G1/S (z-score of summed log2 fold changes over temperatures); higher = more thermally stable than in G1/S.
[4] abbreviates: cell cycle stage: early G1 (4.5 h after nocodazole release).
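Wherever solubility change mitosis vs G1/S (difference of NP-40 vs SDS log2 ratios) is given: synchronized HeLa Kyoto cells (double thymidine block for G1/S, nocodazole release for mitosis), protein amounts in NP-40 versus SDS lysates quantified by mass spectrometry, three biological replicates.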
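Wherever solubility in G1/S (NP-40 vs SDS abundance) is given: HeLa Kyoto cells arrested at G1/S by double thymidine block, proteins quantified by TMT10plex mass spectrometry in mild NP-40 versus SDS extracts, three biological replicates.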
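Wherever thermal stability score vs G1/S (z-score of summed log2 fold changes over temperatures) is given: synchronized HeLa Kyoto cells, proteins quantified by TMT10plex mass spectrometry, three biological replicates, mitosis taken 0.5 h after nocodazole release, G1/S directly after double thymidine block.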

Sequence of BMS1 (chain, as listed by the source): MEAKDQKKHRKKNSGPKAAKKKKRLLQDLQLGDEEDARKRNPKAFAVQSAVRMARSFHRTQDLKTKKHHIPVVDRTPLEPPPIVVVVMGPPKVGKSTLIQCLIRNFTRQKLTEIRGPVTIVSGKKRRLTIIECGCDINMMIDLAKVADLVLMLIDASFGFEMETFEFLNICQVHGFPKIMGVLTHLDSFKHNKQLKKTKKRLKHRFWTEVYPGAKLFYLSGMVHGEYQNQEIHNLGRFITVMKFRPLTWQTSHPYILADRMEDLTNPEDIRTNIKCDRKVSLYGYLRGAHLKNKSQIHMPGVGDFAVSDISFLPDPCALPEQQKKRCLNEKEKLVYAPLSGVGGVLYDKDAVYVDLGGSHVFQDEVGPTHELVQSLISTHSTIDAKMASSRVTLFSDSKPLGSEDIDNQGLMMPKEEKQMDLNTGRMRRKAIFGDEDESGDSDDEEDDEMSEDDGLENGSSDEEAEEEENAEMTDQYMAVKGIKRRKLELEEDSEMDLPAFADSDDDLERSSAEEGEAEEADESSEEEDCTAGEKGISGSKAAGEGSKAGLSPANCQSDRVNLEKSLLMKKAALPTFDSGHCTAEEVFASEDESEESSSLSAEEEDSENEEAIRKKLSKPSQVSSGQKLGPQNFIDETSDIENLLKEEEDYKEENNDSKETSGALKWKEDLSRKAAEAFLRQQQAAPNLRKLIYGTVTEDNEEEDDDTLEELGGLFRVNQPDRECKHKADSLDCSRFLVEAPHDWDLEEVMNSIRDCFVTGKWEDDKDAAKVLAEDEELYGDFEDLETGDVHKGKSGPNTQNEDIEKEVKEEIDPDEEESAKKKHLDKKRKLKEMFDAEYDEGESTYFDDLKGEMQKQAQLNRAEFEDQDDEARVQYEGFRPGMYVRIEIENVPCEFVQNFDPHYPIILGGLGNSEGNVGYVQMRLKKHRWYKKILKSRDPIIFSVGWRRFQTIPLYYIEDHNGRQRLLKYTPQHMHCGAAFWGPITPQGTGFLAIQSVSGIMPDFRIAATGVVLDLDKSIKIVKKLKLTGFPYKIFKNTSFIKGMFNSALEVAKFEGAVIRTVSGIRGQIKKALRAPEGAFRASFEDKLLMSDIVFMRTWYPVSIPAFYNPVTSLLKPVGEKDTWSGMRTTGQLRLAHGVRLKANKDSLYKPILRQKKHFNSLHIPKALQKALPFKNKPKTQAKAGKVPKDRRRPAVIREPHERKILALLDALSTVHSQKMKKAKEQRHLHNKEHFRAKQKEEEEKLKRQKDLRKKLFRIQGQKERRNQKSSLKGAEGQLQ

On to BLM, for which the “solubility in G1/S (log2)” value with HeLa Kyoto [1] is -0.848. The “solubility change mitosis (log2)” value in the data set on HeLa Kyoto [2] is 0.632. The thermal stability score in the data set with HeLa Kyoto [3] (setting [4]) is -0.277; with HeLa Kyoto [3] (cell cycle stage: mitosis), -0.894.
Regarding BMS1, the “solubility in G1/S (log2)” value in the data set on HeLa Kyoto [1] is -2.43. Besides, in the data set with HeLa Kyoto [2], the “solubility change mitosis (log2)” value came out at 0.919. Further, the thermal stability score with HeLa Kyoto [3] (setting [4]) was -1.95; in the data set on HeLa Kyoto [3] (cell cycle stage: mitosis), -3.51.
For CEP170B, the “solubility in G1/S (log2)” value in the data set with HeLa Kyoto [1] was 0.0802. In addition, in the data set with HeLa Kyoto [2], the “solubility change mitosis (log2)” value is 0.338. In addition, the thermal stability score is -3.46e-17 with HeLa Kyoto [3] (setting [4]) and -1.29e-17 in the data set with HeLa Kyoto [3] (cell cycle stage: mitosis).
As to DISP1, the “solubility in G1/S (log2)” value in the data set on HeLa Kyoto [1] is 0.0363. Also, the “solubility change mitosis (log2)” value in the data set on HeLa Kyoto [2] was -0.159. Also, the thermal stability score in the data set with HeLa Kyoto [3] (setting [4]) is -0.198; with HeLa Kyoto [3] (cell cycle stage: mitosis), 0.756.
With KIAA1671, the “solubility in G1/S (log2)” value in the data set with HeLa Kyoto [1] is -1.28. For the same substance, the “solubility change mitosis (log2)” value in the data set on HeLa Kyoto [2] stood at 1.05. The thermal stability score was -0.863 in the data set on HeLa Kyoto [3] (setting [4]) and -1.71 with HeLa Kyoto [3] (cell cycle stage: mitosis).
In the case of “MAAAAPAAAAASSEAPAASATAEPEAGDQDSREVRVLQSLRGKICEAKNLLPYLGPHKMRDCFCTINLDQEEVYRTQVVEKSLSPFFSEEFYFEIPRTFQYLSFYVYDKNVLQRDLRIGKVAIKKEDLCNHSGKETWFSLQPVDSNSEVQGKVHLELKLNELITENGTVCQQLVVHIKACHGLPLINGQSCDPYATVSLVGPSRNDQKKTKVKKKTSNPQFNEIFYFEVTRSSSYTRKSQFQVEEEDIEKLEIRIDLWNNGNLVQDVFLGEIKVPVNVLRTDSSHQAWYLLQPRDNGNKSSKTDDLGSLRLNICYTEDYVLPSEYYGPLKTLLLKSPDVQPISASAAYILSEICRDKNDAVLPLVRLLLHHDKLVPFATAVAELDLKDTQDANTIFRGNSLATRCLDEMMKIVGGHYLKVTLKPILDEICDSSKSCEIDPIKLKEGDNVENNKENLRYYVDKLFNTIVKSSMSCPTVMCDIFYSLRQMATQRFPNDPHVQYSAVSSFVFLRFFAVAVVSPHTFHLRPHHPDAQTIRTLTLISKTIQTLGSWGSLSKSKSSFKETFMCEFFKMFQEEGYIIAVKKFLDEISSTETKESSGTSEPVHLKEGEMYKRAQGRTRIGKKNFKKRWFCLTSRELTYHKQPGSKDAIYTIPVKNILAVEKLEESSFNKKNMFQVIHTEKPLYVQANNCVEANEWIDVLCRVSRCNQNRLSFYHPSVYLNGNWLCCQETGENTLGCKPCTAGVPADIQIDIDEDRETERIYSLFTLSLLKLQKMEEACGTIAVYQGPQKEPDDYSNFVIEDSVTTFKTIQQIKSIIEKLDEPHEKYRKKRSSSAKYGSKENPIVGKAS [RASA2]”, the “solubility in G1/S (log2)” value in the data set on HeLa Kyoto [1] is -0.1. Further, the “solubility change mitosis (log2)” value in the data set with HeLa Kyoto [2] was -0.128. For the same substance, the thermal stability score in the data set on HeLa Kyoto [3] (setting [4]) is 0.349; in the data set with HeLa Kyoto [3] (cell cycle stage: mitosis), 0.0928.
On to “MVPAAGRRPPRVMRLLGWWQVLLWVLGLPVRGVEVAEESGRLWSEEQPAHPLQVGAVYLGEEELLHDPMGQDRAAEEANAVLGLDTQGDHMVMLSVIPGEAEDKVSSEPSGVTCGAGGAEDSRCNVRESLFSLDGAGAHFPDREEEYYTEPEVAESDAAPTEDSNNTESLKSPKVNCEERNITGLENFTLKILNMSQDLMDFLNPNGSDCTLVLFYTPWCRFSASLAPHFNSLPRAFPALHFLALDASQHSSLSTRFGTVAVPNILLFQGAKPMARFNHTDRTLETLKIFIFNQTGIEAKKNVVVTQADQIGPLPSTLIKSVDWLLVFSLFFLISFIMYATIRTESIRWLIPGQEQEHVE [TXNDC15]”, for which the “solubility in G1/S (log2)” value in the data set on HeLa Kyoto [1] worked out at 0.719. Also, in the data set on HeLa Kyoto [2], the “solubility change mitosis (log2)” value was -0.0906.
Regarding “MVPPVQVSPLIKLGRYSALFLGVAYGATRYNYLKPRAEEERRIAAEEKKKQDELKRIARELAEDDSILK [ATP5I]”, the “solubility in G1/S (log2)” value in the data set with HeLa Kyoto [1] is -0.147. For the same substance, the “solubility change mitosis (log2)” value in the data set on HeLa Kyoto [2] worked out at 0.197.
On to “MVSDEDELNLLVIVVDANPIWWGKQALKESQFTLSKCIDAVMVLGNSHLFMNRSNKLAVIASHIQESRFLYPGKNGRLGDFFGDPGNPPEFNPSGSKDGKYELLTSANEVIVEEIKDLMTKSDIKGQHTETLLAGSLAKALCYIHRMNKEVKDNQEMKSRILVIKAAEDSALQYMNFMNVIFAAQKQNILIDACVLDSDSGLLQQACDITGGLYLKVPQMPSLLQYLLWVFLPDQDQRSQLILPPPVHVDYRAACFCHRNLIEIGYVCSVCLSIFCNFSPICTTCETAFKISLPPVLKAKKKKLKVSA [GTF2H3]”, for which, in the data set on HeLa Kyoto [1], the “solubility in G1/S (log2)” value was -0.126. In addition, the “solubility change mitosis (log2)” value in the data set on HeLa Kyoto [2] is 0.117.
Taken in the same sequence, the figures for “MVVSKMNKDAQMRAAINQKLIETGERERLKELLRAKLIECGWKDQLKAHCKEVIKEKGLEHVTVDDLVAEITPKGRALVPDSVKKELLQRIRTFLAQHASL [ENY2]” were -0.203 and 0.636.
With “MWMTPKRSKMEVDEALVFRPEWTQRYLVVEPPEGDGALCLVCRRLIVATRERDVRRHYEAEHEYYERYVADGERAALVERLRQGDLPVASFTPEERAARAGLGLCRLLALKGRGWGEGDFVYQCMEVLLREVLPEHVSVLQGVDLSPDITRQRILSIDRNLRNQLFNRARDFKAYSLALDDQAFVAYENYLLVFIRGVGPELEVQEDLLTIINLTHHFSVGALMSAILESLQTAGLSLQRMVGLTTTHTLRMIGENSGLVSYMREKAVSPNCWNVIHYSGFLHLELLSSYDVDVNQIINTISEWIVLIKTRGVRRPEFQTLLTESESEHGERVNGRCLNNWLRRGKTLKLIFSLRKEMEAFLVSVGATTVHFSDKQWLCDFGFLVDIMEHLRELSEELRVSKVFAAAAFDHICTFEVKLNLFQRHIEEKNLTDFPALREVVDELKQQNKEDEKIFDPDRYQMVICRLQKEFERHFKDLRFIKKDLELFSNPFNFKPEYAPISVRVELTKLQANTNLWNEYRIKDLGQFYAGLSAESYPIIKGVACKVASLFDSNQICEKAFSYLTRNQHTLSQPLTDEHLQALFRVATTEMEPGWDDLVRERNESNP [EPM2AIP1]”, the “solubility in G1/S (log2)” value in the data set with HeLa Kyoto [1] is -0.485. The “solubility change mitosis (log2)” value with HeLa Kyoto [2] came out at 0.291.
In the case of “MYFLSGWPKRLLCPLGSPAEAPFHVQSDPQRAFFAVLAAARLSIWYSRPSVLIVTYKEPAKSSTQFGSYKQAEWRPDSTMIAVSTANGYILFFHITSTRGDKYLYEPVYPKGSPQMKGTPHFKEEQCAPALNLEMRKILDLQAPIMSLQSVLEDLLVATSDGLLHLIHWEGMTNGRKAINLCTVPFSVDLQSSRVGSFLGFTDVHIRDMEYCATLDGFAVVFNDGKVGFITPVSSRFTAEQLHGVWPQDVVDGTCVAVNNKYRLMAFGCVSGSVQVYTIDNSTGAMLLSHKLELTAKQYPDIWNKTGAVKLMRWSPDNSVVIVTWEYGGLSLWSVFGAQLICTLGGDFAYRSDGTKKDPLKINSMSWGAEGYHLWVISGFGSQNTEIESDLRSVVKQPSILLFQFIKSVLTVNPCMSNQEQVLLQGEDRLYLNCGEASQTQNPRSSSTHSEHKPSREKSPFADGGLESQGLSTLLGHRHWHVVQISSTYLESNWPIRFSAIDKLGQNIAVVGKFGFAHYSLLTKKWKLFGNITQEQNMIVTGGLAWWNDFMVLACYNINDRQEELRVYLRTSNLDNAFAHVTKAQAETLLLSVFQDMVIVFRADCSICLYSIERKSDGPNTTAGIQVLQEVSMSRYIPHPFLVVSVTLTSVSTENGITLKMPQQARGAESIMLNLAGQLIMMQRDRSGPQIREKDSNPNNQRKLLPFCPPVVLAQSVENVWTTCRANKQKRHLLEALWLSCGGAGMKVWLPLFPRDHRKPHSFLSQRIMLPFHINIYPLAVLFEDALVLGAVNDTLLYDSLYTRNNAREQLEVLFPFCVVERTSQIYLHHILRQLLVRNLGEQALLLAQSCATLPYFPHVLELMLHEVLEEEATSREPIPDPLLPTVAKFITEFPLFLQTVVHCARKTEYALWNYLFAAVGNPKDLFEECLMAQDLDTAASYLIILQNMEVPAVSRQHATLLFNTALEQGKWDLCRHMIRFLKAIGSGESETPPSTPTAQEPSSSGGFEFFRNRSISLSQSAENVPASKFSLQKTLSMPSGPSGKRWSKDSDCAENMYIDMMLWRHARRLLEDVRLKDLGCFAAQLGFELISWLCKERTRAARVDNFVIALKRLHKDFLWPLPIIPASSISSPFKNGKYRTVGEQLLKSQSADPFLNLEMDAGISNIQRSQSWLSNIGPTHHEIDTASSHGPQMQDAFLSPLSNKGDECSIGSATDLTESSSMVDGDWTMVDENFSTLSLTQSELEHISMELASKGPHKSQVQLRYLLHIFMEAGCLDWCIVIGLILRESSIINQILVITQSSEVDGEMLQNIKTGLHAVDRWASTDCPGYKPFLNIIKPQLQKLSEITEEQVQPDAFQPITMGKTPEQTSPRAEESRGSSSHGSIPQGEVGSSNMVSRKEEDTAQAEEEEPFQDGTYDCSVS [RIC1]”, the “solubility in G1/S (log2)” value in the data set with HeLa Kyoto [1] is -0.168. In addition, the “solubility change mitosis (log2)” value with HeLa Kyoto [2] is 0.129.
Taken in the same sequence, the figures for MYO9A were -0.102 and 0.00755.
As for “MYTITKGPSKLVAQRRTGPTQQQVEGRLGELLKCRQPAPPTSQPPRAQPFAQPPGPWPLSSPGPRLVFNRVNGRRAPSTSPSFEGTQETYTVAHEENVRFVSEAWQQVQQQLDGGPAGEGGPRPVQYVERTPNPRLQNFVPIDLDEWWAQQFLARITSCS [FAM195A]”, the “solubility in G1/S (log2)” value with HeLa Kyoto [1] is -0.457. Also, the “solubility change mitosis (log2)” value in the data set on HeLa Kyoto [2] was 0.195.
